# Data published in patent publication US20250270289A1, “SEQUENCE-DEFINED POLYMERS WITH ONE OR MORE AZIDES, METHODS OF MAKING, AND METHODS OF USE THEREOF” (Yale University, priority 2021, published 2025).
# Key:
# [1] = biological target: GST-Src SH2 [GST: P08515]; experiment: fluorescence polarization, GST-Src SH2 titrated on 10 nM FITC-pTyrEEI, one-site binding model
# [2] = biological target: GST-Src SH2 [GST: P08515]; experiment: fluorescence polarization competition; competitor FITC-pTyrEEI on GST-Src SH2
# [3] = biological target: GST-Src SH2 [GST: P08515]; experiment: fluorescence polarization competition, EC50 of pnY peptide against that of pTyr peptide
# GST-Src SH2 [GST: P08515], sequence (P08515 whole entry): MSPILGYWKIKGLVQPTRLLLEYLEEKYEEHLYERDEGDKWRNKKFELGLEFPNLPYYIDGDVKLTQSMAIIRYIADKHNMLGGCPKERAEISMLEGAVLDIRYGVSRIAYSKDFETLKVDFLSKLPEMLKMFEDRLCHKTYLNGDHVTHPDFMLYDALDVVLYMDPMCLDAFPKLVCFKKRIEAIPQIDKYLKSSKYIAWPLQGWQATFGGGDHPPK
Substance,Kd [1] [nM],EC50 [2] [µM],Decrease in binding affinity with SH2 (against pTyr) [3] [fold]
FITC-pTyrEEI (peptide),280,,
pTyrEEI (peptide),,0.74,
pnYEEI (peptide),,12.8,17
